# Data: the supplement of paper PMC10126150
# ± gives the standard deviation of the averaged measurements.
# System: ATP
# Test: switch fluorescence ratio, 500 uM ATP over buffer (Cy3 cluster intensity, sum of 5 cycles each) (fold (ratio)); higher = stronger signal-on switching upon ATP binding; sequences stand for … in TCGTCGGCAGCGTCAGATGTGTATAAGAGACAGTTTTTTTTTTTTTTTTTTTTTTTTT…TC
# Settings: aptamer strand: ATP DNA aptamer (quencher-CACCTGGGGGAGTATTGCGGAGGAAGG + anchor), 100 nM annealed; ATP concentration: 500 uM
# How it was run: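 Clusters carrying Cy3-labelled switching strands on a modified Illumina MiSeq flow-cell were annealed to 100 nM quencher-labelled ATP aptamer and imaged in selection buffer. They were imaged again after 15 min with 500 uM ATP at 22 °C, over five buffer/ATP cycles with NaOH stripping and re-annealing in between. For each cluster, the fluorescence ratio is the summed Cy3 intensity of the target cycles divided by that of the buffer cycles, averaged per switch-domain sequence. Clusters outside 100-1000 RFU were left out.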
# 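Also: ATP exposure 15 min at 22 °C before imaging.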
row,Sequence,switch fluorescence ratio
1,AGAGTCGATT,1.014 ± 0.0028
2,AGAGTGGCAG,1.01 ± 0.021
3,AGAGTGGGGG,0.971 ± 0.065
4,AGAGTGTTTT,1 ± 0.028
5,AGAGTTTGGG,0.988 ± 0.0099
6,AGATAAAACG,1.02 ± 0.076
7,AGATAATCGC,0.987 ± 0.03
8,AGATAGGAG,0.989 ± 0.027
9,AGATATTCGG,0.984 ± 0.07
10,AGATATTTCG,1.02 ± 0.028
11,AGATCGGATA,1.01 ± 0.024
12,AGATCTACAT,1.01 ± 0.016
13,AGATGACTGA,0.997 ± 0.048
14,AGATGAGGTG,1.01 ± 0.019
15,AGATGCCGGA,1 ± 0.027
16,AGATGGGGCG,0.955 ± 0.088
17,AGATGGTACT,0.9668 ± 4.6e-05
18,AGATGGTCTG,1.01 ± 0.032
19,AGATGGTGGG,1 ± 0.025
20,AGATGTCAGC,0.9708 ± 0.0063
21,AGATGTCGTT,0.997 ± 0.039
22,AGATTCGTCA,0.988 ± 0.018
23,AGATTGGATA,1.01 ± 0.036
24,AGATTGGGCT,0.997 ± 0.03
25,AGATTTAAAG,0.98 ± 0.034

row,Sequence,switch fluorescence ratio
1,AGATTTAAGT,0.985 ± 0.022
2,AGATTTGAGC,0.972 ± 0.035
3,AGATTTGTCG,0.993 ± 0.068
4,AGATTTTAGG,0.988 ± 0.012
5,AGCAAAAAGG,0.997 ± 0.054
6,AGCAAACTTA,1.14 ± 0.043
7,AGCAAATTCG,1.04 ± 0.016
8,AGCAAGGGCG,1.06 ± 0.074
9,AGCAATCGGT,1.6 ± 0.42
10,AGCAATTTCG,1.42 ± 0.081
11,AGCACCGGGT,1.02 ± 0.018
12,AGCACGAAGG,0.992 ± 0.04
13,AGCACTCTAT,1.04 ± 0.024
14,AGCACTTTAT,1.05 ± 0.073
15,AGCAGACTGG,0.988 ± 0.0033
16,AGCAGAGGGA,1.01 ± 0.011
17,AGCAGAGGGT,0.994 ± 0.04
18,AGCAGGAGGA,1 ± 0.031
19,AGCAGGATGC,0.987 ± 0.013
20,AGCAGGGTTG,1.029 ± 0.01
21,AGCAGGTGGC,1.13 ± 0.045
22,AGCATATAGG,1.009 ± 0.0059
23,AGCATGGCTT,1.04 ± 0.054
24,AGCATGGTTG,1.01 ± 0.026
25,AGCATGTATC,1.07 ± 0.012

row,Sequence,switch fluorescence ratio
1,AGCATTGTGA,0.998 ± 0.051
2,AGCATTTAGG,1.02 ± 0.035
3,AGCATTTCTT,0.98 ± 0.042
4,AGCCATGATG,0.979 ± 0.036
5,AGCCCGTCGT,0.99 ± 0.022
6,AGCCCTCGTT,1 ± 0.043
7,AGCCGAAAGG,1.024 ± 0.0025
8,AGCCGCGCAG,1.035 ± 0.0056
9,AGCCGGGGGC,1.004 ± 0.002
10,AGCCGGGTGT,1.34 ± 0.47
11,AGCCGTATGA,1.013 ± 0.0087
12,AGCCTGATCT,1.036 ± 0.0053
13,AGCCTGGGCT,0.99 ± 0.014
14,AGCCTGTATG,0.9542 ± 0.0046
15,AGCCTTAGGG,1 ± 0.02
16,AGCCTTTTTT,0.982 ± 0.011
17,AGCGATGTCG,0.9885 ± 0.0014
18,AGCGATTCTG,1.02 ± 0.032
19,AGCGCTGGCG,1 ± 0.049
20,AGCGGAAGAA,1.02 ± 0.024
21,AGCGGAGAGG,1.006 ± 0.0096
22,AGCGGAGTAT,0.998 ± 0.063
23,AGCGGATTCT,0.984 ± 0.041
24,AGCGGATTGG,1.02 ± 0.061
25,AGCGGATTTG,0.966 ± 0.014

row,Sequence,switch fluorescence ratio
1,AGCGGCAACG,1.08 ± 0.098
2,AGCGGCCTGG,0.992 ± 0.014
3,AGCGGCTAAT,0.981 ± 0.011
4,AGCGGCTCGC,1.007 ± 0.0047
5,AGCGGGGCGG,1.02 ± 0.017
6,AGCGGGGCTG,1.01 ± 0.029
7,AGCGGGTCGG,1 ± 0.021
8,AGCGGTGTGC,0.9738 ± 0.0031
9,AGCGGTTAAT,0.984 ± 0.019
10,AGCTAAAGGC,1.03 ± 0.032
11,AGCTAACGAC,1.83 ± 0.067
12,AGCTATCAGC,1.01 ± 0.047
13,AGCTCAGGGA,1.04 ± 0.027
14,AGCTGAGGCT,0.999 ± 0.015
15,AGCTGAGGGG,1.01 ± 0.012
16,AGCTGATACT,2 ± 0.061
17,AGCTGATTTT,0.982 ± 0.033
18,AGCTGGAACA,1 ± 0.018
19,AGCTGGAATA,1 ± 0.06
20,AGCTGGGGGG,0.982 ± 0.044
21,AGCTGGGGTC,0.9851 ± 0.0063
22,AGCTGGGTTT,1 ± 0.021
23,AGCTGTCTCA,0.991 ± 0.017
24,AGCTGTGATG,1.01 ± 0.058
25,AGCTGTGTGT,1.012 ± 0.0047

row,Sequence,switch fluorescence ratio
1,AGCTGTTTCA,0.973 ± 0.02
2,AGCTTTATTA,0.9984 ± 0.0032
3,AGGAAAAACT,1.02 ± 0.047
4,AGGAAAGGGC,0.983 ± 0.034
5,AGGAACGCGC,1.02 ± 0.027
6,AGGAAGGGT,0.9978 ± 0.0079
7,AGGAAGGTCG,0.969 ± 0.013
8,AGGAAGGTTT,0.993 ± 0.041
9,AGGAATATTT,1.04 ± 0.095
10,AGGAATGAGG,0.958 ± 0.011
11,AGGAATTCCG,0.992 ± 0.054
12,AGGAATTTAG,1.02 ± 0.03
13,AGGACAGATA,1.01 ± 0.017
14,AGGACGCGAC,1.548 ± 0.014
15,AGGACGCTGG,0.9449 ± 0.0088
16,AGGACGGCAG,0.964 ± 0.13
17,AGGACTCTCA,1.01 ± 0.032
18,AGGACTTTCT,1.036 ± 0.0013
19,AGGAGAAGAC,1.03 ± 0.049
20,AGGAGACTTA,0.9877 ± 0.0047
21,AGGAGATGTA,1.029 ± 0.0061
22,AGGAGCAAGG,1.26 ± 0.072
23,AGGAGCCTTT,0.9927 ± 0.0011
24,AGGAGCTCTT,0.998 ± 0.0056
25,AGGAGGGGAG,1.024 ± 0.0053

row,Sequence,switch fluorescence ratio
1,AGGAGGGGTT,1.01 ± 0.037
2,AGGAGGTATT,0.99 ± 0.026
3,AGGAGGTTTG,0.97 ± 0.015
4,AGGAGTGCTG,0.995 ± 0.052
5,AGGAGTTGGA,0.987 ± 0.013
6,AGGAGTTGGG,0.97 ± 0.046
7,AGGAGTTTGC,1.068 ± 0.0073
8,AGGATAAGCT,1.1 ± 0.17
9,AGGATAGATA,1 ± 0.012
10,AGGATAGCAA,1.3 ± 0.023
11,AGGATAGGAG,0.9957 ± 0.0014
12,AGGATAGGGG,0.991 ± 0.026
13,AGGATATTGG,1.01 ± 0.02
14,AGGATCATGG,1.01 ± 0.021
15,AGGATCCTCG,0.992 ± 0.018
16,AGGATCGATG,1 ± 0.05
17,AGGATCGGGG,1.01 ± 0.013
18,AGGATCTACT,1.01 ± 0.021
19,AGGATGAGGT,0.978 ± 0.057
20,AGGATGGAGT,0.987 ± 0.031
21,AGGATGGGGT,0.966 ± 0.017
22,AGGATGTTGG,0.993 ± 0.026
23,AGGATTAAGG,0.992 ± 0.018
24,AGGATTAGGA,1.01 ± 0.062
25,AGGATTGTGT,0.9523 ± 0.0032

row,Sequence,switch fluorescence ratio
1,AGGATTTAAG,1.05 ± 0.022
2,AGGATTTCGT,1.008 ± 0.0068
3,AGGCAGACTT,1.004 ± 0.0089
4,AGGCAGGACT,1.02 ± 0.044
5,AGGCAGTCCA,1.003 ± 0.0065
6,AGGCCACCTT,1.04 ± 0.023
7,AGGCCCATGT,1.02 ± 0.012
8,AGGCCCCCCA,1.328 ± 0.013
9,AGGCCCGTTT,1.02 ± 0.029
10,AGGCCCTAAG,1.01 ± 0.017
11,AGGCCGGCTG,0.96 ± 0.066
12,AGGCCTCAGG,0.99 ± 0.022
13,AGGCGGACTG,1.02 ± 0.13
14,AGGCGGATGT,0.978 ± 0.016
15,AGGCGGGCAG,1.039 ± 0.004
16,AGGCGGGCGG,0.959 ± 0.019
17,AGGCGTTTAG,1.03 ± 0.059
18,AGGCTACATA,1.03 ± 0.019
19,AGGCTACCGT,1.0254 ± 0.001
20,AGGCTAGGAG,0.994 ± 0.053
21,AGGCTCCTCT,1.02 ± 0.025
22,AGGCTCGGGG,1.04 ± 0.026
23,AGGCTCTAAG,1.01 ± 0.011
24,AGGCTCTTAT,1.03 ± 0.049
25,AGGCTGCATG,1.01 ± 0.021

row,Sequence,switch fluorescence ratio
1,AGGCTGTTTT,1.02 ± 0.016
2,AGGCTTAGGG,1.03 ± 0.022
3,AGGCTTATAT,1.01 ± 0.024
4,AGGCTTATTT,1 ± 0.023
5,AGGCTTGTTT,0.996 ± 0.015
6,AGGGAAAAGA,1.03 ± 0.031
7,AGGGAAATCG,0.979 ± 0.037
8,AGGGAAGTTG,1.01 ± 0.07
9,AGGGAGGTTT,0.944 ± 0.073
10,AGGGAGTATG,1.01 ± 0.023
11,AGGGAGTGGG,0.968 ± 0.027
12,AGGGAGTTTT,1.01 ± 0.026
13,AGGGATAAAA,1.02 ± 0.055
14,AGGGATAAGC,0.988 ± 0.021
15,AGGGATAATT,0.975 ± 0.027
16,AGGGATAGTT,0.992 ± 0.0047
17,AGGGATCTGC,0.966 ± 0.028
18,AGGGATGGGG,0.976 ± 0.016
19,AGGGATGGTA,1.006 ± 0.0083
20,AGGGATTTGT,1.028 ± 0.003
21,AGGGATTTTT,0.999 ± 0.011
22,AGGGCAAACG,1.05 ± 0.0075
23,AGGGCAACTG,1.07 ± 0.079
24,AGGGCAGCTT,1.06 ± 0.025
25,AGGGCATTCT,0.9837 ± 0.0017
